Where no end group is shown, it is not given here.
How the values were obtained:
Test in all cases: ELISA; competition ELISA as described in ref. 20: synthetic peptide in solution blocks PDZ domain binding to immobilized peptide; IC50 = peptide concentration that blocked 50% of binding; no detectable interaction = IC50 > 500 μM
Settings in all cases: both partners purified
[1] = biological target: T1, SCRIB PDZ domain 1 (human, UniProt Q14160 728-815)
T1 construct: also called SCRIB-1

[2] = biological target: T2, SCRIB PDZ domain 3 (human, UniProt Q14160 1004-1093)
T2 construct: also called SCRIB-3
T2 sequence (looked up): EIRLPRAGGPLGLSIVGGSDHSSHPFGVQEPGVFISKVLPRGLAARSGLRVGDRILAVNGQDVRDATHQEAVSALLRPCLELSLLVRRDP

[3] = biological target: T3, SCRIB PDZ domain 2 (human, UniProt Q14160 862-950)
T3 construct: also called SCRIB-2
T3 sequence (looked up): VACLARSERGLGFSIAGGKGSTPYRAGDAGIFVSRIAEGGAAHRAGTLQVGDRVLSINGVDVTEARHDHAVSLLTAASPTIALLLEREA

Measured: IC50

T1 sequence (Q14160 728-815): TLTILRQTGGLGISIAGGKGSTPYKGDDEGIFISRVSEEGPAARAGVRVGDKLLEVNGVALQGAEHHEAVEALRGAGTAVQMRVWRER

RQIKIWFQNRRMKWKKRSWFEAWA (not fully specified (C-terminus)) [designed nonbinding peptide Π–RSWFEAWA (peptide 15)]
> 500 µM: all assays above

Source: article PMC2553845, “A Specificity Map for the PDZ Domain Family” (PLoS Biology, 2008)
